Here are results for one molecule from paper PMC6349032.

The series addresses GD-FXaS195A (Gla-domainless factor Xa, catalytically inactive) (UniProt P00742;P00742 85-179;235-488, S419A). As to the kind of experiment: X-ray crystallography.

Chain of GD-FXaS195A (Gla-domainless factor Xa, catalytically inactive) (P00742 85-179, chain 1 of 2): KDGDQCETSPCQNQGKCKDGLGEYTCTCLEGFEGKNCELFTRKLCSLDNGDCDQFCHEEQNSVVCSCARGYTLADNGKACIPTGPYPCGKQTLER
Chain of GD-FXaS195A (Gla-domainless factor Xa, catalytically inactive) (P00742 235-488 S419A, chain 2 of 2): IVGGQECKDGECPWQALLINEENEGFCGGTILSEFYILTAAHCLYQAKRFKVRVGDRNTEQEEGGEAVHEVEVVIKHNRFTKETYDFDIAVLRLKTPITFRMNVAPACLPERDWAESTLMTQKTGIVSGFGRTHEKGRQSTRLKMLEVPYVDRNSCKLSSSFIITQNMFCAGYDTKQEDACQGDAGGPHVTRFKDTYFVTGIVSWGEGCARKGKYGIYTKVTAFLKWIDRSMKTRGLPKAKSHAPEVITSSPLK

As for GAGAGCCCCAGCGAGAUAAUACUUGGCCCCGCUCUU (structured_RNA, all C are 2'-fluoro-C and all U are 2'-fluoro-U; purines A/G as ribonucleotides) [11F7t], the binding result is listed as “binds”.
